{"source": "patent US6632633B1", "about": "“Process for oxidation of steroids and genetically engineered cells used therein” (Aventis Pharma, S.A., priority 1988, dated 2003)", "molecules": {"B1": {"name": "P450SCC expressed from pre-P450SCC encoding DNA in yeast (pGBSCC-12 in K. lactis, pGBSCC-13 in S. cerevisiae SCC-105) (protein)", "chain": "MLARGLPLRSALVKACPPILSTVGEGWGHHRVGTGEGAGISTKTPRPYSEIPSPGDNGWLNLYHFWREKGSQRIHFRHIENFQKYGPIYREKLGNLESVYIIHPEDVAHLFKFEGSYPERYDIPPWLAYHRYYQKPIGVLFKKSGTWKKDRVVLNTEVMAPEAIKNFIPLLNPVSQDFVSLLHKRIKQQGSGKFVGDIKEDLFHFAFESITNVMFGERLGMLEETVNPEAQKFIDAVYKMFHTSVPLLNVPPELYRLFRTKTWRDHVAAWDTIFNKAEKYTEIFYQDLRRKTEFRNYPGILYCLLKSEKMLLEDVKANITEMLAGGVNTTSMTLQWHLYEMARSLNVQEMLREEVLNARRQAEGDISKMLQMVPLLKASIKETLRLHPISVTLQRYPESDLVLQDYLIPAKTLVQVAIYAMGRDPAFFSSPDKFDPTRWLSKDKDLIHFRNLGFGWGVRQCVGRRIAELEMTLFLIHILENFKVEMQHIGDVDTIFNLILTPDKPIFLVFRPFNQDPPQA"}, "B2": {"name": "P450SCC purified from bovine adrenal cortex (protein)", "chain": "ISTKTPRPYSEIPSPGDNGWLNLYHFWREKGSQRIHFRHIENFQKYGPIYREKLGNLESVYIIHPEDVAHLFKFEGSYPERYDIPPWLAYHRYYQKPIGVLFKKSGTWKKDRVVLNTEVMAPEAIKNFIPLLNPVSQDFVSLLHKRIKQQGSGKFVGDIKEDLFHFAFESITNVMFGERLGMLEETVNPEAQKFIDAVYKMFHTSVPLLNVPPELYRLFRTKTWRDHVAAWDTIFNKAEKYTEIFYQDLRRKTEFRNYPGILYCLLKSEKMLLEDVKANITEMLAGGVNTTSMTLQWHLYEMARSLNVQEMLREEVLNARRQAEGDISKMLQMVPLLKASIKETLRLHPISVTLQRYPESDLVLQDYLIPAKTLVQVAIYAMGRDPAFFSSPDKFDPTRWLSKDKDLIHFRNLGFGWGVRQCVGRRIAELEMTLFLIHILENFKVEMQHIGDVDTIFNLILTPDKPIFLVFRPFNQDPPQA"}, "B3": {"name": "purified ADX: adrenodoxin purified from bovine adrenal cortex, 10 μM in buffer (protein)", "chain": "SSSEDKITVHFINRDGETLTTKGKIGDSLLDVVVQNNLDIDGFGACEGTLACSTCHLIFEQHIFEKLEAITDEENDMLDLAYGLTDRSRLGCQICLTKAMDNMTVRVPDAVSDARESIDMGMNSSKIE"}, "B4": {"name": "Bovine cytochrome P450 side chain cleavage enzyme (P450SCC), mature protein with added methionine start, expressed recombinantly (pGBSCC-5, pGBSCC-17, … (protein)", "chain": "MISTKTPRPYSEIPSPGDNGWLNLYHFWREKGSQRIHFRHIENFQKYGPIYREKLGNLESVYIIHPEDVAHLFKFEGSYPERYDIPPWLAYHRYYQKPIGVLFKKSGTWKKDRVVLNTEVMAPEAIKNFIPLLNPVSQDFVSLLHKRIKQQGSGKFVGDIKEDLFHFAFESITNVMFGERLGMLEETVNPEAQKFIDAVYKMFHTSVPLLNVPPELYRLFRTKTWRDHVAAWDTIFNKAEKYTEIFYQDLRRKTEFRNYPGILYCLLKSEKMLLEDVKANITEMLAGGVNTTSMTLQWHLYEMARSLNVQEMLREEVLNARRQAEGDISKMLQMVPLLKASIKETLRLHPISVTLQRYPESDLVLQDYLIPAKTLVQVAIYAMGRDPAFFSSPDKFDPTRWLSKDKDLIHFRNLGFGWGVRQCVGRRIAELEMTLFLIHILENFKVEMQHIGDVDTIFNLILTPDKPIFLVFRPFNQDPPQA"}, "B5": {"name": "adrenodoxin reductase purified from bovine adrenal cortex (protein)", "chain": "STQEQTPQICVVGSGPAGFYTAQHLLKHHSRAHVDIYEKQLVPFGLVRFGVAPDHPEVKNVINTFTQTARSDRCAFYGNVEVGRDVTVQELQDAYHAVVLSYGAEDHQALDIPGEELPGVFSARAFVGWYNGLPENRELAPDLSCDTAVILGQGNVALDVARILLTPPDHLEKTDITEAALGALRQSRVKTVWIVGRRGPLQVAFTIKELREMIQLPGTRPMLDPADFLGLQDRIKEAARPRKRLMELLLRTATEKPGVEEAARRASASRAWGLRFFRSPQQVLPSPDGRRAAGIRLAVTRLEGIGEATRAVPTGDVEDLPCGLVLSSIGYKSRPIDPSVPFDPKLGVVPNMEGRVVDVPGLYCSGWVKRGPTGVITTTMTDSFLTGQILLQDLKAGHLPSGPRPGSAFIKALLDSRGVWPVSFSDWEKLDAEEVSRGQASGKPREKLLDPQEMLRLLGH"}, "B6": {"name": "type I enzyme: human 3β-hydroxy-5-ene steroid dehydrogenase/5-ene-4-ene isomerase type I, isolated from placenta, also expressed in skin (protein, UniProt P14060 2-373, looked up)", "3 beta-hydroxysteroid …": "TGWSCLVTGAGGFLGQRIIRLLVKEKELKEIRVLDKAFGPELREEFSKLQNKTKLTVLEGDILDEPFLKRACQDVSVIIHTACIIDVFGVTHRESIMNVNVKGTQLLLEACVQASVPVFIYTSSIEVAGPNSYKEIIQNGHEEEPLENTWPAPYPHSKKLAEKAVLAANGWNLKNGGTLYTCALRPMYIYGEGSRFLSASINEALNNNGILSSVGKFSTVNPVYVGNVAWAHILALRALQDPKKAPSIRGQFYYISDDTPHQSYDNLNYTLSKEFGLRLDSRWSFPLSLMYWIGFLLEIVSFLLRPIYTYRPPFNRHIVTLSNSVFTFSYKKAQRDLAYKPLYSWEEAKQKTVEWVGSLVDRHKETLKSKTQ"}, "B7": {"name": "type II 3β HSDH: human 3β HSDH type II, isolated from adrenals and gonads (protein, UniProt P26439 1-372, looked up)", "3 beta-hydroxysteroid …": "MGWSCLVTGAGGLLGQRIVRLLVEEKELKEIRALDKAFRPELREEFSKLQNRTKLTVLEGDILDEPFLKRACQDVSVVIHTACIIDVFGVTHRESIMNVNVKGTQLLLEACVQASVPVFIYTSSIEVAGPNSYKEIIQNGHEEEPLENTWPTPYPYSKKLAEKAVLAANGWNLKNGDTLYTCALRPTYIYGEGGPFLSASINEALNNNGILSSVGKFSTVNPVYVGNVAWAHILALRALRDPKKAPSVRGQFYYISDDTPHQSYDNLNYILSKEFGLRLDSRWSLPLTLMYWIGFLLEVVSFLLSPIYSYQPPFNRHTVTLSNSVFTFSYKKAQRDLAYKPLYSWEEAKQKTVEWVGSLVDRHKETLKSKTQ"}}, "key": {"[1]": {"molecular_target": "T1, ADX purified from bovine adrenal cortex, P00257", "T1 chain": "B3 chain"}, "[2]": {"molecular_target": "T2, Bovine adrenodoxin (ADX), mature protein with added methionine start, expressed in K. lactis from pGBADX-1 or pGBSCC/ADX-1, P00257", "T2 chain": "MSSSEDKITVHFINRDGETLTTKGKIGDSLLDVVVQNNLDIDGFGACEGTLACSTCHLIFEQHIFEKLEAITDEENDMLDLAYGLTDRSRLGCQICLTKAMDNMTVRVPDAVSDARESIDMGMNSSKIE"}, "[3]": {"molecular_target": "T3, cytochrome P450SCC (Bos taurus, UniProt P00189)", "T3 construct": "1.5 μM of P450 SCC (purified from bovine adrenal cortex); from tissue; host or cells: bovine adrenal cortex", "T3 sequence (P00189 40-520)": "B2 chain", "experiment": "ADX activity (electron transfer from adrenodoxin reductase to cytochrome P450SCC) in cell-free extracts by P450SCC activity assay", "assay_type": "biochemical, bovine", "conditions": "within 15 minutes at 30° C.", "description": "K. lactis ADX-102, obtained as described in Example 23, and control strain K. lactis CBS 2360 were grown in 100 ml of YEPD medium (1% yeast extract, 2% peptone, 2% glucose monohydrate) containing 2.5 ml of a 6.7% (w/w) yeast nitrogen base (Difco laboratories) solution and 100 mg 1^−1 of geneticin (G418 sulfate; Gibco Ltd.), for 56 hours at 30° C. The cells were collected by centrifugation (4,000×g, 15 minutes), resuspended in a physiological salt solution and washed with a phosphate buffer (pH 7.0, 50 mM). After centrifugation (4,000×g, 15 minutes), the pellet was resuspended in a phosphate buffer (pH 7.0, 50 mM) resulting in a suspension containing 0.5 g cell wet weight/ml. The cells were disrupted using a Braun MSK Homogenizer (6×15 seconds, 0.45-0.50 mm glass beads) and unbroken cells were removed by centrifugation (4,000×g, 15 minutes). […]\nADX activity, i.e. electrotransfer capacity from adrenodoxin reductase to cytochrome P450SCC, in the cell-free extracts was determined by a P450SCC activity assay. […]\nThe assay was started by mixing 75 μl of solution A with 50 μl of solution B and 125 μl of cell-free extract or 125 μl of a potassium phosphate buffer (50 mM, pH 7.0) containing 10 μM ADX (purified from bovine adrenal cortex). […] The suspension was heated for 15 minutes at 120° C. and then, the ^14C/^3H ratio was determined by double label liquid scintillation counting. […]"}, "[4]": {"system": "pregnenolone", "conditions": "after expression in HeLa cells of the respective cDNA's; cited from earlier work"}}}
{"molecule": "B1", "values": [{"measurement": "side chain cleavage of cholesterol (P450SCC activity assay, 14C/3H ratio)", "setting": "[1]", "result": "During 3 hours of incubation, 45% of the cholesterol had been converted"}]}
{"molecule": "B2", "values": [{"measurement": "side chain cleavage of cholesterol (P450SCC activity assay, 14C/3H ratio)", "setting": "[2]", "result": "the side chain of the cholesterol was cleaved within 15 minutes in a yield of 50%"}, {"measurement": "side chain cleavage of cholesterol (P450SCC activity assay, 14C/3H ratio)", "setting": "[1]", "result": "the side chain of the cholesterol was cleaved within 15 minutes in a yield of 50%"}]}
{"molecule": "B3", "values": [{"measurement": "yield of cholesterol side chain cleavage", "setting": "[3]", "result": 50, "unit": "%"}]}
{"molecule": "B4", "values": [{"measurement": "cholesterol side-chain cleaving reaction in the presence of NADPH and ADR", "setting": "[2]", "result": "cholesterol side-chain cleaving activity was demonstrated in the cell-free extract of K. lactis SCC/ADX-101, whereas the cell-free extract of K. lactis SCC-101, no activity was detectable"}]}
{"molecule": "B5", "values": [{"measurement": "side chain cleavage of cholesterol (P450SCC activity assay, 14C/3H ratio)", "setting": "[2]", "result": "the side chain of the cholesterol was cleaved within 15 minutes in a yield of 50%"}, {"measurement": "side chain cleavage of cholesterol (P450SCC activity assay, 14C/3H ratio)", "setting": "[1]", "result": "the side chain of the cholesterol was cleaved within 15 minutes in a yield of 50%"}]}
{"molecule": "B6", "values": [{"measurement": "Km", "setting": "[4]", "result": 0.24, "unit": "µM"}]}
{"molecule": "B7", "values": [{"measurement": "Km", "setting": "[4]", "result": 1.2, "unit": "µM"}]}
